# Source: US12077763B2, “RNA-based control of powdery mildew” (Greenlight Biosciences, Inc., priority 2021, dated 2024)
# B1: GS2666 (nucleic acid)
# sense: UUCGGCAUAUCAACGUAAAAAAAAAAUAAAUCGACACAAAACAGCUCAAUACCGUAGUUUAUCACCAUGCUUACAAUUACGUAAACGGAGGUCUGCAAAGAGCCUUAAGUCUUUGGAAAUAUCAUGCAGUAGUGGUAUUGAAAAAGGAACCACUAGCUUCGUAAACUAUACCCCAGAAGAUUCCCAGAAGAUUUUAAAUGGAGUUGCUCCGUCUGGGAGUAACAAGACCAAAGCUCGAAGGGAGAAAGAGGCCUUGGAAAAACGCCAAAAGUUAU
# antisense: AUAACUUUUGGCGUUUUUCCAAGGCCUCUUUCUCCCUUCGAGCUUUGGUCUUGUUACUCCCAGACGGAGCAACUCCAUUUAAAAUCUUCUGGGAAUCUUCUGGGGUAUAGUUUACGAAGCUAGUGGUUCCUUUUUCAAUACCACUACUGCAUGAUAUUUCCAAAGACUUAAGGCUCUUUGCAGACCUCCGUUUACGUAAUUGUAAGCAUGGUGAUAAACUACGGUAUUGAGCUGUUUUGUGUCGAUUUAUUUUUUUUUUACGUUGAUAUGCCGAA
# B2: GS2384 (nucleic acid)
# sense: AUGGGAUUUACACCGAUCAACUUUACAUUUUACUGGGCACCUCUACCUUGGAAUCGUGCUCGUGAUCAUGCCCAAAGAACUGUUGCUAGGACUUAUAUGAAUAUAAUCCAAGCUCGUAGAGAAGAGAAAAGAAGCGGUGAGAAUAAGCAUGAUAUAAUGUGGGAGUUGAUGCGUUCCACUUAUAAAGACGGGACUCCGGU
# antisense: ACCGGAGUCCCGUCUUUAUAAGUGGAACGCAUCAACUCCCACAUUAUAUCAUGCUUAUUCUCACCGCUUCUUUUCUCUUCUCUACGAGCUUGGAUUAUAUUCAUAUAAGUCCUAGCAACAGUUCUUUGGGCAUGAUCACGAGCACGAUUCCAAGGUAGAGGUGCCCAGUAAAAUGUAAAGUUGAUCGGUGUAAAUCCCAU
# B3: GS2668 (nucleic acid)
# sense: UUCCUAGUCAAACGUGCAUCUAGUGGAGGUGUACAAUUUUCUCGUGAUCCCCUAAACUUAACAAAUGUGCAUUCUCGCAAAUAUGCCGGAUUUGUUAACGAUAAGGCUGUCGGAAUUCUUCCCAUUGAAGGUGGUAAAGGAGGUAUUACUUUGAUCACCAAAAAAACUAAAUUUACCCAAAAACCUUCUAGCGCCAUAUACACAACAGUUUUUGGUGGUAAUAAAACUUCAAGACGGACAUAUAAGGGGGUUGUCAAUACUGUUGUCAAAUCAAGAUAUCGAUCUGAUCUUCGUGCUGAAGCUGUUGCUCGUGCGUCUGCUAUUCGGUACUCGCAAAAACCAAAGGGUGAUCUUCCUAAGAAGAAAUUGCGUGGAUCAAAAGCUAAAAAGG
# antisense: CCUUUUUAGCUUUUGAUCCACGCAAUUUCUUCUUAGGAAGAUCACCCUUUGGUUUUUGCGAGUACCGAAUAGCAGACGCACGAGCAACAGCUUCAGCACGAAGAUCAGAUCGAUAUCUUGAUUUGACAACAGUAUUGACAACCCCCUUAUAUGUCCGUCUUGAAGUUUUAUUACCACCAAAAACUGUUGUGUAUAUGGCGCUAGAAGGUUUUUGGGUAAAUUUAGUUUUUUUGGUGAUCAAAGUAAUACCUCCUUUACCACCUUCAAUGGGAAGAAUUCCGACAGCCUUAUCGUUAACAAAUCCGGCAUAUUUGCGAGAAUGCACAUUUGUUAAGUUUAGGGGAUCACGAGAAAAUUGUACACCUCCACUAGAUGCACGUUUGACUAGGAA
# B4: GS2656 (nucleic acid)
# sense: GCCCGCUUCCUCAGCUAUUCUUGCCUGUUUUGCGUUGACCACAUCCAUAAUUACGCCACCCUUCAACAUGCGAGCCAGGCCGGUUUUGACCCCAAAAUUCUUUUGUCCCACAGGCUUUGAGGUGCCUUUAUUGAUUCCAUUAUUAACGCCACCAUCAGCAGAGACAGGAAUAGGGAUUUCAGUGGCCAUCUUGCAAUUAUCUCAUAAAUAGUGGUAUUAGUUAAGCGCCCGAAGGUUCUUGUCAAAUUCUUCUUGCAAAUAUUAGUAUCAAGAGUUUGCUGAAGAUAUAAAACUAAGAAACGAAUUGUAAUUAACAAAUGGAUUGUAAAAUUUCUCAAAAUGACCGCCUGGUCGAUAUGACUAUGACGUUUAGAGCCAGGAAGUGUUGCAGGAAAAA
# antisense: UUUUUCCUGCAACACUUCCUGGCUCUAAACGUCAUAGUCAUAUCGACCAGGCGGUCAUUUUGAGAAAUUUUACAAUCCAUUUGUUAAUUACAAUUCGUUUCUUAGUUUUAUAUCUUCAGCAAACUCUUGAUACUAAUAUUUGCAAGAAGAAUUUGACAAGAACCUUCGGGCGCUUAACUAAUACCACUAUUUAUGAGAUAAUUGCAAGAUGGCCACUGAAAUCCCUAUUCCUGUCUCUGCUGAUGGUGGCGUUAAUAAUGGAAUCAAUAAAGGCACCUCAAAGCCUGUGGGACAAAAGAAUUUUGGGGUCAAAACCGGCCUGGCUCGCAUGUUGAAGGGUGGCGUAAUUAUGGAUGUGGUCAACGCAAAACAGGCAAGAAUAGCUGAGGAAGCGGGC
# B5: GS2655 (nucleic acid)
# sense: UGCCAUUCGCGUAUUUUUCUAUUCGAAGACACUCAGUCCUUCAGAGAUUAUUCCAGAAUUGUAUCCUCAAUUACAAUCUUAUUUUUACACAAUACCUCUUUCCCCUAAAUAAAGUACUACAAUGUCAAAUUCCGAAUUAGCAGUUUCGUAUGCUGCCCUUAUCCUCGCAGAUGACGGGGUUGACGUCACAGCAGAUAAGCUACAAUCAUUAAUCAAGGCUGCUGGUAUUGAUGAUGUUGAGCCAAUUUGGACUACUUUAUUUGCCAAGGCUCUCGAUGGCAAAGAUGUGAAAGAUAUGCUCCUGAAUGUAG
# antisense: CUACAUUCAGGAGCAUAUCUUUCACAUCUUUGCCAUCGAGAGCCUUGGCAAAUAAAGUAGUCCAAAUUGGCUCAACAUCAUCAAUACCAGCAGCCUUGAUUAAUGAUUGUAGCUUAUCUGCUGUGACGUCAACCCCGUCAUCUGCGAGGAUAAGGGCAGCAUACGAAACUGCUAAUUCGGAAUUUGACAUUGUAGUACUUUAUUUAGGGGAAAGAGGUAUUGUGUAAAAAUAAGAUUGUAAUUGAGGAUACAAUUCUGGAAUAAUCUCUGAAGGACUGAGUGUCUUCGAAUAGAAAAAUACGCGAAUGGCA
# B6: GS2660 (nucleic acid)
# sense: GUCGUAAUGAUCUUGGCCAAUAAUUCGAGGGUCAAGCAUUCGAGAUUUAGACUCAAGGGGAUCUACCGCUGGAUAGAUACCUAAUUCUGAAAUACCACGUGAUAAUACAGUAGUUGCAUCUAAAUGAGCAAACGUUGUUGCGGGUGCUGGAUCCGUCAGAUCAUCAGCUGGCACGUAAACAGCUUGCACUGAAGUGAUUGAGCCUUUGGUAGUUGUUGUAAUUCGCUCUUGCAUAAGACCCAUAUCUACUGCAAGUGUAGGUUGAUAACCAACUGCAGAGGGAAUACGUCCGAGAAGAGCAGAGACUUCGGAGCCGGCCUGAGUGAAACGAAAAAUAUUAUCAAUGAAAAGUAAUACAUCUUGUCCUUCUUCAUCACGGAAAUACUCAGCAAUAGUUA
# antisense: UAACUAUUGCUGAGUAUUUCCGUGAUGAAGAAGGACAAGAUGUAUUACUUUUCAUUGAUAAUAUUUUUCGUUUCACUCAGGCCGGCUCCGAAGUCUCUGCUCUUCUCGGACGUAUUCCCUCUGCAGUUGGUUAUCAACCUACACUUGCAGUAGAUAUGGGUCUUAUGCAAGAGCGAAUUACAACAACUACCAAAGGCUCAAUCACUUCAGUGCAAGCUGUUUACGUGCCAGCUGAUGAUCUGACGGAUCCAGCACCCGCAACAACGUUUGCUCAUUUAGAUGCAACUACUGUAUUAUCACGUGGUAUUUCAGAAUUAGGUAUCUAUCCAGCGGUAGAUCCCCUUGAGUCUAAAUCUCGAAUGCUUGACCCUCGAAUUAUUGGCCAAGAUCAUUACGAC
# System: E. necator
# Test: Leaf disc assay, dry inoculum (settling tower), decrease in disease severity / hyphal growth (Example 2)
# Conditions: decrease in disease severity (hyphal growth) relative to untreated control, value ± SE; for % decrease =/− SE TP1: time point 1 (untreated control hyphal growth ≥50%); for % decrease =/− SE TP2: time point 2
molecule,measurement,value
B1,% decrease =/− SE TP1,14 ± 7%
B2,% decrease =/− SE TP1,20 ± 0%
same,% decrease =/− SE TP2,8 ± 0%
B3,% decrease =/− SE TP1,46 ± 3%
same,% decrease =/− SE TP2,38 ± 4%
B4,% decrease =/− SE TP1,34 ± 5%
same,% decrease =/− SE TP2,46 ± 6%
B5,% decrease =/− SE TP1,26 ± 9%
same,% decrease =/− SE TP2,9 ± 9%
B6,% decrease =/− SE TP2,24 ± 8%
